Laboratory results taken from US20210253718A1, “FRIZZLED5 PROTEIN-BINDING AGENTS” (Modmab Therapeutics Corporation, priority 2016, published 2021).

B1: Fab-2901: anti-FZD5 Fab with antibody variable region Fv-2901; CDR SEQ ID NOs: 35, 36, 40, 79, 116, 154 (antibody, V domains shown)
VH: EVQLVESGGGLVQPGGSLRLSCAASGFNISYSYMHWVRQAPGKGLEWVASIYSYSSYTYYADSVKGRFTISADTSKNTAYLQMNSLRAEDTAVYYCARSWYYWSPSSGMDYWGQGTLVTVSS
VL: DIQMTQSPSSLSASVGDRVTITCRASQSVSSAVAWYQQKPGKAPKLLIYSASSLYSGVPSRFSGSRSGTDFTLTISSLQPEDFATYYCQQGGFLITFGQGTKVEIK
B2: Fab-2905: anti-FZD5 Fab with antibody variable region Fv-2905; CDR SEQ ID NOs: 35, 36, 44, 83, 120, 157 (antibody, V domains shown)
VH: EVQLVESGGGLVQPGGSLRLSCAASGFNLSYYYMHWVRQAPGKGLEWVASIYSSYSYTSYADSVKGRFTISADTSKNTAYLQMNSLRAEDTAVYYCARSGYALDYWGQGTLVTVSS
VL: DIQMTQSPSSLSASVGDRVTITCRASQSVSSAVAWYQQKPGKAPKLLIYSASSLYSGVPSRFSGSRSGTDFTLTISSLQPEDFATYYCQQSSWYYGYPFTFGQGTKVEIK
B3: Fab-2933: anti-FZD5 Fab with antibody variable region Fv-2933; CDR SEQ ID NOs: 35, 36, 72, 109, 148, 177 (antibody, V domains shown)
VH: EVQLVESGGGLVQPGGSLRLSCAASGFNLYSSYMHWVRQAPGKGLEWVASIYSSYGYTSYADSVKGRFTISADTSKNTAYLQMNSLRAEDTAVYYCARTVRGSKKPYFSGWAMDYWGQGTLVTVSS
VL: DIQMTQSPSSLSASVGDRVTITCRASQSVSSAVAWYQQKPGKAPKLLIYSASSLYSGVPSRFSGSRSGTDFTLTISSLQPEDFATYYCQQFWWYASWLFTFGQGTKVEIK
B4: Fab-2928: anti-FZD5 Fab with antibody variable region Fv-2928; CDR SEQ ID NOs: 35, 36, 67, 105, 143, 175 (antibody, V domains shown)
VH: EVQLVESGGGLVQPGGSLRLSCAASGFNISYSSIHWVRQAPGKGLEWVASIYPSYSSTYYADSVKGRFTISADTSKNTAYLQMNSLRAEDTAVYYCARYYAMDYWGQGTLVTVSS
VL: DIQMTQSPSSLSASVGDRVTITCRASQSVSSAVAWYQQKPGKAPKLLIYSASSLYSGVPSRFSGSRSGTDFTLTISSLQPEDFATYYCQQAFYYPITFGQGTKVEIK
B5: Fab-2900: anti-FZD5 Fab with antibody variable region Fv-2900; CDR SEQ ID NOs: 35, 36, 39, 78, 115, 153 (antibody, V domains shown)
VH: EVQLVESGGGLVQPGGSLRLSCAASGFNLSSYYIHWVRQAPGKGLEWVASISSSSSSTSYADSVKGRFTISADTSKNTAYLQMNSLRAEDTAVYYCARGALDYWGQGTLVTVSS
VL: DIQMTQSPSSLSASVGDRVTITCRASQSVSSAVAWYQQKPGKAPKLLIYSASSLYSGVPSRFSGSRSGTDFTLTISSLQPEDFATYYCQQWYSGSSLFTFGQGTKVEIK
B6: Fab-2913: anti-FZD5 Fab with antibody variable region Fv-2913; CDR SEQ ID NOs: 35, 36, 52, 91, 128, 165 (antibody, V domains shown)
VH: EVQLVESGGGLVQPGGSLRLSCAASGFNISYSSIHWVRQAPGKGLEWVASIYPYSSSTSYADSVKGRFTISADTSKNTAYLQMNSLRAEDTAVYYCARYGYYGLDYWGQGTLVTVSS
VL: DIQMTQSPSSLSASVGDRVTITCRASQSVSSAVAWYQQKPGKAPKLLIYSASSLYSGVPSRFSGSRSGTDFTLTISSLQPEDFATYYCQQWGVSHYLFTFGQGTKVEIK
B7: Fab-2934: anti-FZD5 Fab with antibody variable region Fv-2934; CDR SEQ ID NOs: 35, 36, 73, 110, 149, 155 (antibody, V domains shown)
VH: EVQLVESGGGLVQPGGSLRLSCAASGFNISYSYMHWVRQAPGKGLEWVASIYSSSGSTSYADSVKGRFTISADTSKNTAYLQMNSLRAEDTAVYYCARGAIDYWGQGTLVTVSS
VL: DIQMTQSPSSLSASVGDRVTITCRASQSVSSAVAWYQQKPGKAPKLLIYSASSLYSGVPSRFSGSRSGTDFTLTISSLQPEDFATYYCQQWYHYGLITFGQGTKVEIK
B8: Fab-2903: anti-FZD5 Fab with antibody variable region Fv-2903; CDR SEQ ID NOs: 35, 36, 42, 81, 118, 155 (antibody, V domains shown)
VH: EVQLVESGGGLVQPGGSLRLSCAASGFNLSYYYIHWVRQAPGKGLEWVASIYPYSSYTSYADSVKGRFTISADTSKNTAYLQMNSLRAEDTAVYYCARGAIDYWGQGTLVTVSS
VL: DIQMTQSPSSLSASVGDRVTITCRASQSVSSAVAWYQQKPGKAPKLLIYSASSLYSGVPSRFSGSRSGTDFTLTISSLQPEDFATYYCQQWGGGSSLFTFGQGTKVEIK
B9: Fab-2909: anti-FZD5 Fab with antibody variable region Fv-2909; CDR SEQ ID NOs: 35, 36, 48, 87, 124, 161 (antibody, V domains shown)
VH: EVQLVESGGGLVQPGGSLRLSCAASGFNISSSYMHWVRQAPGKGLEWVASISSSSGYTSYADSVKGRFTISADTSKNTAYLQMNSLRAEDTAVYYCARTVRGSKKPYFSGWAMDYWGQGTLVTVSS
VL: DIQMTQSPSSLSASVGDRVTITCRASQSVSSAVAWYQQKPGKAPKLLIYSASSLYSGVPSRFSGSRSGTDFTLTISSLQPEDFATYYCQQSWSYHYLITFGQGTKVEIK
B10: Fab-2930: anti-FZD5 Fab with antibody variable region Fv-2930; CDR SEQ ID NOs: 35, 36, 69, 107, 145, 153 (antibody, V domains shown)
VH: EVQLVESGGGLVQPGGSLRLSCAASGFNLSYYYIHWVRQAPGKGLEWVASIYPYSGSTSYADSVKGRFTISADTSKNTAYLQMNSLRAEDTAVYYCARGALDYWGQGTLVTVSS
VL: DIQMTQSPSSLSASVGDRVTITCRASQSVSSAVAWYQQKPGKAPKLLIYSASSLYSGVPSRFSGSRSGTDFTLTISSLQPEDFATYYCQQWYGPYLITFGQGTKVEIK
B11: Fab-2932: anti-FZD5 Fab with antibody variable region Fv-2932; CDR SEQ ID NOs: 35, 36, 71, 108, 147, 153 (antibody, V domains shown)
VH: EVQLVESGGGLVQPGGSLRLSCAASGFNISYSYMHWVRQAPGKGLEWVASIYSSYSSTSYADSVKGRFTISADTSKNTAYLQMNSLRAEDTAVYYCARGALDYWGQGTLVTVSS
VL: DIQMTQSPSSLSASVGDRVTITCRASQSVSSAVAWYQQKPGKAPKLLIYSASSLYSGVPSRFSGSRSGTDFTLTISSLQPEDFATYYCQQWYGSFALITFGQGTKVEIK

Columns and labels:
Assay in all cases: Flow cytometry of anti-FZD5 Fab binding to CHO cells overexpressing Frizzled CRD
[1] = molecular target: T1, FZD2 CRD (Homo sapiens, UniProt Q14332)
T1 construct: D35-P161; GPI anchor signal (C); expressed in transfected cells; host or cells: CHO cells, lentiviral pLenti-puro
Summary of the method: (§1)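 CHO lines each expressing a different human Frizzled CRD, myc-tagged and GPI-anchored at the surface, stained with 200 nM Fab, then Alexa Fluor 488 F(ab′)2 secondary. Dead cells excluded by viability dye; anti-c-Myc staining served as expression control. Binding read by flow cytometry.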

[2] = molecular target: T2, FZD7 CRD (Homo sapiens, UniProt O75084)
T2 construct: D45-S169; GPI anchor signal (C); expressed in transfected cells; host or cells: CHO cells, lentiviral pLenti-puro
Summary of the method: as §1

[3] = molecular target: T3, FZD8 CRD (Homo sapiens, UniProt Q9H461)
T3 construct: K31-D155; GPI anchor signal (C); expressed in transfected cells; host or cells: CHO cells, lentiviral pLenti-puro
T3 sequence (Q9H461 31-155): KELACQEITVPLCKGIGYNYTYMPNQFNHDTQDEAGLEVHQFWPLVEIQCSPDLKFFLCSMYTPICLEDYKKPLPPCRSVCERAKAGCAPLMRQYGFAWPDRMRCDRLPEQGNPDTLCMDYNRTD
Summary of the method: as §1

Row | Molecule | Median fluorescence, Frizzled CRD overexpressed on CHO cells: FZD2 [1] | Median fluorescence, Frizzled CRD overexpressed on CHO cells: FZD7 [2] | Median fluorescence, Frizzled CRD overexpressed on CHO cells: FZD8 [3]
1 | B1 | 13.95 |  | 
2 | B2 | 5.09 | 3.43 | 8.17
3 | B3 | 9.82 |  | 
4 | B4 | 14.59 |  | 7.57
5 | B5 | 6.15 | 8.98 | 
6 | B6 |  |  | 8.98
7 | B7 | 6.61 |  | 
8 | B8 | 10.84 |  | 
9 | B9 |  |  | 7.43
10 | B10 | 11.44 |  | 
11 | B11 | 9.39 |  | 
